Binding result and Kd data for seven molecules are collected here from patent publication US20160003835, “APTAMERS AND USES THEREOF” (CARIS LIFE SCIENCES SWITZERLAND HOLDINGS S.A.R.L., published 2016).

In series [1] the target is T1, EpCAM (UniProt P16422 P16422:24-265).
T1 sequence: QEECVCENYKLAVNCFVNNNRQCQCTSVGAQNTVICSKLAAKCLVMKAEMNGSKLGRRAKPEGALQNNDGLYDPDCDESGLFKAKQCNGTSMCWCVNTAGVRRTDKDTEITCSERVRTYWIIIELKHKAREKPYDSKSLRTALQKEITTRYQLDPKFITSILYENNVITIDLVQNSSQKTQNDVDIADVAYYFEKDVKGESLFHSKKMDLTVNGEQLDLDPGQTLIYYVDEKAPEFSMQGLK
Nature of the series: bead fluorescence assay, anti-His beads; improved by 1 mM MgCl2 in 25 mM HEPES; lower affinity than Aptamer 4. The settings on record: tags: His tag; label: biotin / SA-PE. The protocol: Purified CAR003 aptamer was tested for binding to recombinant EPCAM protein with a polyhistidine tag (“His tagged”) using the following internally developed assay. Anti-His tag conjugated beads were mixed with EPCAM-His tagged protein. The aptamer to be tested was labeled with streptavidin-phycoerythrin (SA-PE). The EpCAM-beads and SA-PE labeled aptamers were mixed. Binding was determined as median flourescent value in a bead assay as described herein. MFI values (FIG. 20E-F) increase with increased binding of the SA-PE labeled aptamer to the recombinant EpCAM. FIGS. 20E-F illustrate binding of CAR003 to EPCAM protein in 25 mM HEPES with PBS-BN (PBS, 1% BSA, 0.05% Azide, pH 7.4) (FIG. 20E) or in 25 mM HEPES with 1 mM MgCl₂ (FIG. 20F). EPCAM aptamer Aptamer 4 (see above) was used for comparison. As shown in the figures, CAR003 pool 3 more efficiently binds its target in the presence of MgCl₂ (FIG. 20F) than in the presence of BSA (FIG. 20E).
CAR003 affinity to EpCAM in the bead assay environment was assessed in the same assay as above with aptamer titrated across a constant input of antigen. FIG. 20I illustrates titration of aptamers against EPCAM recombinant protein (constant input 5 μg).

The target in series [2] is T1, EpCAM. The series is described as follows: ELONA; standard ELISA plate. As to conditions: tags: Fc fusion; label: biotin.
In series [3] the target is T1, EpCAM. Nature of the series: SPR; immobilized biotinylated aptamer, HBS-EP+ buffer, global fit. As to conditions: label: biotin. Background: Surface plasmon resonance follows binding to a sensor surface in real time, without labels.
The target of series [4] is T1, EpCAM. Described as above. As to conditions: label: biotin. The procedure: FIG. 4 illustrates results from a binding assay showing the binding affinity of an exemplary aptamer (Aptamer ID BTX176881 (SEQ ID NO. 98883)) to the target EpCAM protein at various target concentrations. The aptamer to be tested is fixed to a substrate using a biotin tail and is incubated with various concentrations of target (125, 250 and 500 nM). The test is performed on a surface plasmon resonance machine (SPR). The SPR machine detects association and disassociation of the aptamer and the target. Target is applied until the association and disassociation events are equal, resulting in a plateau of the curve. The equations describing the curve at each concentration can then be used to calculate the KD of the aptamer (see Table 5).
The Biacore 200 control software is programmed with the following conditions: Solution: HBS-EP+Buffer; Number of cycles: 3; Contact time: 120s; Flow rate: 30 μl/min; Dissociation time: 300s; Solution: Glycine-HCl pH 2.5; Contact time: 120s; Flow rate: 20 μl/min; Stabilization period: Os. The binding affinities of these aptamers are then measured using the SPR assay above, or an alternate in vitro assay assessing the aptamer for a desired function.
This is another data set of the same source.

Another series concerns the target PSMA (FOLH1/NAALADase I) (UniProt Q04609 Q04609:44-750). Nature of the series: ELONA; ELISA against recombinant PSMA, values only in figure. As to conditions: label: biotin. Background: In an ELISA, binding on a coated surface is turned into a signal by an enzyme label.

Chain of PSMA (FOLH1/NAALADase I) (Q04609 44-750, one chain of several): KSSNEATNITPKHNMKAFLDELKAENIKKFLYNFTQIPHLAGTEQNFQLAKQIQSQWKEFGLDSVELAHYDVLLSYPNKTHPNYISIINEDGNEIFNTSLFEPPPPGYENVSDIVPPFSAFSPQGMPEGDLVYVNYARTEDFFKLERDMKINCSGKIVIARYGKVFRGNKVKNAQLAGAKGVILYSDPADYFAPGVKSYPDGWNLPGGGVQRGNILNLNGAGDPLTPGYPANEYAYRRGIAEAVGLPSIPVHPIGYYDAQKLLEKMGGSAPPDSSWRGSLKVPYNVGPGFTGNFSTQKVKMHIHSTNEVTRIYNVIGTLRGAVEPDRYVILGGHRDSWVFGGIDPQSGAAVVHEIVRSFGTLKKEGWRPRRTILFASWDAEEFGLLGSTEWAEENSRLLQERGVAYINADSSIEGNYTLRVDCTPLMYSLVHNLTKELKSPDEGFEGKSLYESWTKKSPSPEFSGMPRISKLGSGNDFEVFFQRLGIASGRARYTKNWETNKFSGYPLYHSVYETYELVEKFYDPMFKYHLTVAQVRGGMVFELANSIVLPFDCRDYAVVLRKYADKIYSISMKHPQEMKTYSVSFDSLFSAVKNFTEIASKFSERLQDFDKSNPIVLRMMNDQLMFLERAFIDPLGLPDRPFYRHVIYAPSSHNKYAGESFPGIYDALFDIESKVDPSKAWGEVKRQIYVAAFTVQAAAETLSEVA

B1: CAR003 (ssDNA)
DNA: ATCCAGAGTGACGCAGCAGTCTTTTCTGATGGACACGTGGTGGTCTAGTATCTGGACACGGTGGCTTAGT
modifications: 3' biotin (CAR003.2_3'-B, same bases as SEQ 230823)
As to B1, the binding result with EpCAM [1] is “binds”.

B2: CAR016 (ssDNA)
DNA: ACTAAGCCACCGTGTCCAACGTAAGTATATCTGTACAATGCTGCGTCACTCTGGAT
modifications: 5' biotin
Consider B2, for which the binding result with EpCAM [2] is “binds”.

Regarding CTGTGAGGCGTACTGCGGTGAGCCTCTCATTA (ssDNA, 3' tail of 6 thymines and biotin) [BTX187269], in the series with EpCAM [3], the affinity, expressed as Kd, was 7.12 nM.

CCGCGCAGATATACAACGTACCTCTGTGCGCA (ssDNA, 3' tail of 6 thymines and biotin) [BTX176881] showed a Kd with EpCAM [4] of 8.4 nM.

B3: CAR050 (ssDNA)
DNA: ACTAAGCCACCGTGTCCACCCCCCTCTGTCTCTTGTTTCTCTTTTCTATGCTGCGTCACTCTGGAT
modifications: 5' biotin
For the molecule B3, the binding result in the series with PSMA (FOLH1/NAALADase I) is listed as “binds”.

CCCCCCGAATCACATGACTTGGGCGGGGGTCG (ssDNA, 3' tail of 6 thymines and biotin) [Aptamer 4]: in the series with EpCAM [3], the affinity, expressed as Kd, was 10.1 nM.

B4: CAR051 (ssDNA)
DNA: ACTAAGCCACCGTGTCCAGCCCTATTCCCTCGCTTTCTCCCCTTTTGTTGCTGCGTCACTCTGGAT
modifications: 5' biotin
Consider B4, for which the binding result with PSMA (FOLH1/NAALADase I) is on record as “binds”.

By Kd is commonly meant the equilibrium constant for the complex coming apart.
